2 molecules from patent publication US20080107658A1 (AstraZeneca / MedImmune, published 2008) can be followed below.

The target in this experiment is T1, rat nerve growth factor (beta-NGF) (rat, UniProt P25427 122-241).
T1 construct: mature; also called rat NGF; recombinant rat β-NGF
Nature of the experiment: purified scFv, inhibition of NGF binding to coated TrkA fusion protein (DELFIA). As for the experimental part:
Crude scFv samples were prepared from periplasmic lysates of E. coli TG-1 bacteria transfected with selected phage for evaluation in the binding assay. […] Assay plates were washed with PBS/Tween 20, blocked for 2 h using 1% bovine serum albumin (BSA) in PBS, and washed again. […] Samples were transferred in a volume of 100 μl to assay plates and incubated for 60 min at room temperature. […] Briefly, plates were washed and 100 μl streptavidin Eu³⁺ added to each well, diluted 1/1000 in DELFIA assay buffer. Plates were incubated for a further 60 min at room temperature and washed with DELFIA wash buffer, followed by addition of 100 μl DELFIA enhancement solution to each well. Plates were read using a Wallac Victor fluorimetric plate reader (excitation wavelength 314 nm; emission wavelength 615 nm).
Purified scFv preparations were prepared as described in Example 3 of WO01/66754. Protein concentrations of purified scFv preparations were determined using the BCA method (Pierce).

B1: 1033B2 scFv (scFv, V domains shown)
VH: QVQLQQSGAEVKKPGSSVKLSCKASGGTFSSFGISWVRQAPGQGLEWLGRIIPFLGPADYAQKFQGRVTITADESRSTAYMELSSLTSEDTAVYFCARSFYDILTGYYEGVFYYYMDVWGQGTMVTVSS
VL: QSVLIQPASVSGSPGQSITISCTGTSSDVGGYNYVSWYQQHPGKAPKLMIYEGSKRPSGVSNRFSGSKSGNTASLTISGLQAEDEADYYCSSYTTRSTRVFGGGTKLTVL
notes: purified scFv
Turning to B1, the binding result is “binds”.

B2: 1057F11 scFv (scFv, V domains shown)
VH: EVQLVETGGGVVQPGTSLRLSCAASGFTFSSHGMHWVRQAPGQGLEWVAHAWSDGSNKYYADSLKGRFTISRDNSRNTLYLQMNSLRAEDTAVYYCARDGQQLANYAMDVWGRGTTVTVSS
VL: DIQMTQSPSFLSASVGDRVTITCRASQGINSYLAWYQQIPGKAPNLLIYAASTLQSGVPSRFSGSGSGTEFTLTISSLQPEDFATYYCQQLNTYPFTFGPGTKVEIK
notes: purified scFv
B2: the binding result was “binds”.
